Experiment [1] has as its target H7N9病毒的HA蛋白(购自ACROBiosystems) (H7N9 influenza virus). Briefly: ELISA, HA coated, negative control.
For experiment [2] the target is unchanged. The experiment can be described thus: ELISA, HA coated, supernatant of 293F cells transfected with 5Q2 H and L genes. In general terms: In an ELISA, binding on a coated surface is turned into a signal by an enzyme label.
Experiment [3] concerns the target H7N9病毒 A/Anhui/1/2013 的血凝素HA (on live virus) (influenza A virus A/Anhui/1/2013 (H7N9)). The experiment can be described thus: cell-based or functional assay.

Here are results for 2 molecules from patent CN111434684A.

Where “and” joins values, the source holds several entries; their conditions need not be identical. Equal entries are not always repeated.

Turning to 阴性对照 (ELISA, wells G, H), the 450nm in experiment [1] was 0.0675 OD450 and 0.0554 OD450.

B1: 抗H7N9全人源单克隆抗体5Q2 (antibody, V domains shown)
VH: QVQLVESGAEVKKPGASVKVSCKASGYIFTNYDINWVRQATGQGLEWMGWMSPDNGDTGFAQKFQGRVTMTRNTSITTAYMELSSLTSEDTAVYYCATGSADCNGGNCYSWFDPWGQGTLVTVSS
VL: SSELTQDPAVSVALGQTVRITCQGDRVRNYYASWYQQKPGQAPVLVIYGKSNRPSGIPDRFSGSSSGNTASLTITGAQAEDEADYYCSNRDTNGYHVLFGGGTKLTVLV
For the molecule B1, the 450nm in experiment [2] was 1.23 OD450 and 0.936 OD450 and 0.723 OD450. Moreover, the 中和实验 (微量中和-ELISA, MDCK细胞) IC50 in experiment [3] was 5.52 µg/mL.
